Assay [1] deals with T1, GST-RhoBL63 (UniProt P62745 1-196, L63). Nature of the assay: SPR. (In SPR one partner is held on a chip, and binding of the other changes the refractive index at the surface.)
Assay [2] has as its target T2, GST-RhoAL63 (UniProt P61586 1-193, L63). Put plainly: SPR.
The target in assay [3] is T1, GST-RhoBL63. Nature of the assay: SPR. This is another data set of the same source.
Assay [4] addresses T2, GST-RhoAL63. Nature of the assay: SPR. The source holds these as a separate data set.
Assay [5] addresses 6xHis-RhoBL63 (UniProt P62745 1-196, L63). Put plainly: ELISA.
Assay [6] addresses 6xHis-RhoAL63 (UniProt P61586 1-193, L63). Nature of the assay: ELISA. (In an ELISA, binding on a coated surface is turned into a signal by an enzyme label.)

T1 sequence (P62745 other isoform, or with tags, fused parts or gaps L63): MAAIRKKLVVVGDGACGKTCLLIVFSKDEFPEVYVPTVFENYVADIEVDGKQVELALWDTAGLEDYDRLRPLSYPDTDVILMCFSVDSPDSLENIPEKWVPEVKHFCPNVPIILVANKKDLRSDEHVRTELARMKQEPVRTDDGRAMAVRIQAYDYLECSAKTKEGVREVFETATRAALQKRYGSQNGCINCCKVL
T2 sequence (P61586 other isoform, or with tags, fused parts or gaps L63): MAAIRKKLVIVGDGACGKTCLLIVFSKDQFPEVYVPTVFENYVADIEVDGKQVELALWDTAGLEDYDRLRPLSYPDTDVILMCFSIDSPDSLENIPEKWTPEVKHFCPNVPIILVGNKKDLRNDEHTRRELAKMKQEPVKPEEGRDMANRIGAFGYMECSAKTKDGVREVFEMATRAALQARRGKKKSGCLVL
6xHis-RhoBL63, sequence (P62745 other isoform, or with tags, fused parts or gaps L63): as the sequence (P62745 other isoform, or with tags, fused parts or gaps L63) above
6xHis-RhoAL63, sequence (P61586 other isoform, or with tags, fused parts or gaps L63): as the sequence (P61586 other isoform, or with tags, fused parts or gaps L63) above

B1: scFvE3 (soluble, in fusion with the N-terminal domain of the phage P3 protein) (scFv, V domains shown)
VH: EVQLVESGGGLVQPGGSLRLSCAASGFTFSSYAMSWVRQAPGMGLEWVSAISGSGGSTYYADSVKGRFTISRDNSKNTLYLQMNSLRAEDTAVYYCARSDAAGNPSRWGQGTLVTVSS
VL: SSELTQDPAVSVALGQTVRITCQGDSLRSYYTSWYQQKPGQAPVRVIYGKNNRPSGVPDRFSGSSSGNTASLTITGAQAEDEADYYCNSRDSSGNHAYVFGGGTKLTVL
With B1, the koff in assay [1] is 0.000683 s⁻¹; in assay [2], 0.0176 s⁻¹. Further, the values for the Kd in assay [3] and in assay [4] were 3.14 nM and 36.9 nM, respectively.

B2: scFvA5 (soluble, in fusion with the N-terminal domain of the phage P3 protein) (scFv, V domains shown)
VH: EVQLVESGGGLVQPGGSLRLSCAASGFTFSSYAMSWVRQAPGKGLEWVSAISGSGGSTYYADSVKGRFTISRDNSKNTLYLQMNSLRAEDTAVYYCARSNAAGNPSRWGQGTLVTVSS
VL: SSELTQDPAVSVALGQTVRITCQGDSLRSYYASWYQQKPGQAPVLVIYGKNNRPSGIPDRFSGSSSGNTASLTITGAQAEDEADYYCNSRDSSGNHAYVFGGGTKLTVL
As to B2, the Kd is 24 nM in assay [5] and 24.5 nM in assay [6].

B3: scFvF7 (soluble, in fusion with the N-terminal domain of the phage P3 protein) (scFv, V domains shown)
VH: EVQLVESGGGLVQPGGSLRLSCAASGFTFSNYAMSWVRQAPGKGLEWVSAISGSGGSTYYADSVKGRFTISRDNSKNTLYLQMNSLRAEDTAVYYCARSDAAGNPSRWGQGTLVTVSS
VL: SSELTQDPAVSVALGQTVRITCQGDSLRSYYASWYQQKPGQAPVLVIYGKNNRPSGIPDRFSGSSSGNTASLTITGAQAEDEADYYCNTRDSSGNHAYVFGGGTKLTVL
As to B3, the results for the koff in assay [1] and in assay [2] were 0.000414 s⁻¹ and 0.000248 s⁻¹, respectively. Besides, the Kd worked out at 3.39 nM in assay [3] and 2.35 nM in assay [4].

B4: scFvD10 (soluble, in fusion with the N-terminal domain of the phage P3 protein) (scFv, V domains shown)
VH: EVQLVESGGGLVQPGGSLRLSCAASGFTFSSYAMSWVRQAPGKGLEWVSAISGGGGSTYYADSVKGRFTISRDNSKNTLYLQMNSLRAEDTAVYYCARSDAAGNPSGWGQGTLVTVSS
VL: SSELTQDPAVSVALGQTVRITCQGDSLRSYYASWYQQKPGQAPVLVIYGKNNRPSGIPDRFSGSSSGNTASLTITGAQAEDEADYYCNSRDSSGNHAYVFGGGTKLTVL
On to B4, for which the koff in assay [2] was 0.00297 s⁻¹. In assay [4], this molecule yielded a Kd of 39.6 nM.

Broadly, the koff is a measure of how fast the partners let go of each other. As a reminder, the Kd is the equilibrium constant for the complex coming apart. A low value points to a tighter complex.
